Measured values published in PMC6555819, “Comprehensive study of nuclear receptor DNA binding provides a revised framework for understanding receptor specificity”.
Numbering of substitutions follows the chain as printed.

B1: NRC3_wobSeed66_DR2_A8G_o1 (dsDNA)
DNA 1: GCAATACGGGGTCACTAGGCCAGAGTAGGTACGAATGCGATTGACAGCGTAGAATGAAGG
DNA 2: CCTTCATTCTACGCTGTCAATCGCATTCGTACCTACTCTGGCCTAGTGACCCCGTATTGC
B2: NRC3_wobSeed93_DR3_T11G_o1 (dsDNA)
DNA 1: GCAGTCAAAGGTCATCTAGGTAACGTAAGATATGCTGCGATTGACAGCGTAGAATGAAGG
DNA 2: CCTTCATTCTACGCTGTCAATCGCAGCATATCTTACGTTACCTAGATGACCTTTGACTGC
B3: NRC3_wobSeed13_DR0_C7A_o1 (dsDNA)
DNA 1: GCCGTCAAAGGTCAAGGTCAGTGAAAGAGACTCGAAGCGATTGACAGCGTAGAATGAAGG
DNA 2: CCTTCATTCTACGCTGTCAATCGCTTCGAGTCTCTTTCACTGACCTTGACCTTTGACGGC
B4: NRC3_wobSeed33_DR1_A13T_o1 (dsDNA)
DNA 1: GCATCTCTAGGTTAAAGTTCAGTGAATCCCGAGGATGCGATTGACAGCGTAGAATGAAGG
DNA 2: CCTTCATTCTACGCTGTCAATCGCATCCTCGGGATTCACTGAACTTTAACCTAGAGATGC
B5: NRC3_random_hg19_106_o1 (dsDNA)
DNA 1: GCAAGGAATGTAATCTAACTCTGTATTCAAAGAAGAGCGATTGACAGCGTAGAATGAAGG
DNA 2: CCTTCATTCTACGCTGTCAATCGCTCTTCTTTGAATACAGAGTTAGATTACATTCCTTGC
B6: NRC3_random_hg19_319_o1 (dsDNA)
DNA 1: GCTCCCTGCCAGCCCTGGTCTGAAGCAAGCCTAGAGGCGATTGACAGCGTAGAATGAAGG
DNA 2: CCTTCATTCTACGCTGTCAATCGCCTCTAGGCTTGCTTCAGACCAGGGCTGGCAGGGAGC
B7: NRC3_random_hg19_68_o1 (dsDNA)
DNA 1: GCAGCAGTGAGGACCAATGGGCAGTCCAGGAGGAAAGCGATTGACAGCGTAGAATGAAGG
DNA 2: CCTTCATTCTACGCTGTCAATCGCTTTCCTCCTGGACTGCCCATTGGTCCTCACTGCTGC
B8: NRC3_random_hg19_499_o1 (dsDNA)
DNA 1: GCCATGTGGACTTCATTCGACCCAGCTGAGAAGACTGCGATTGACAGCGTAGAATGAAGG
DNA 2: CCTTCATTCTACGCTGTCAATCGCAGTCTTCTCAGCTGGGTCGAATGAAGTCCACATGGC
B9: NRC3_wobSeed47_DR1_G20C_o1 (dsDNA)
DNA 1: GCGGAACGAGGGCAAAGTTCATAGCATCTGTCGACGGCGATTGACAGCGTAGAATGAAGG
DNA 2: CCTTCATTCTACGCTGTCAATCGCCGTCGACAGATGCTATGAACTTTGCCCTCGTTCCGC
B10: NRC3_wobSeed37_DR1_C6A_o1 (dsDNA)
DNA 1: GCCGTACAAGGTCAAAGGTCAGTGAAGAGATGACGGGCGATTGACAGCGTAGAATGAAGG
DNA 2: CCTTCATTCTACGCTGTCAATCGCCCGTCATCTCTTCACTGACCTTTGACCTTGTACGGC
B11: NRC3_wobSeed37_DR1_C6T_o1 (dsDNA)
DNA 1: B10 DNA 1 with A6T
DNA 2: B10 DNA 2 with T55A
B12: NRC3_random_hg19_479_o1 (dsDNA)
DNA 1: GCAAGTAAACAGCCCTCTAGCTTGGGTGGAAATGTGGCGATTGACAGCGTAGAATGAAGG
DNA 2: CCTTCATTCTACGCTGTCAATCGCCACATTTCCACCCAAGCTAGAGGGCTGTTTACTTGC
B13: NRC3_wobSeed29_DR1_A7C_o1 (dsDNA)
DNA 1: GCGCTTCCGGGTCAAAGGTTATAGCATGAATAGAATGCGATTGACAGCGTAGAATGAAGG
DNA 2: CCTTCATTCTACGCTGTCAATCGCATTCTATTCATGCTATAACCTTTGACCCGGAAGCGC
B14: NRC3_random_hg19_455_o1 (dsDNA)
DNA 1: GCCTGCAGTTTCTGTTTCCGTGGTCCAGGTTGAGCCGCGATTGACAGCGTAGAATGAAGG
DNA 2: CCTTCATTCTACGCTGTCAATCGCGGCTCAACCTGGACCACGGAAACAGAAACTGCAGGC
B15: NRC3_wobSeed76_DR3_T21C_o1 (dsDNA)
DNA 1: GCCCTACTGGGCCAAAAAGGCCATTGATGCCGATAAGCGATTGACAGCGTAGAATGAAGG
DNA 2: CCTTCATTCTACGCTGTCAATCGCTTATCGGCATCAATGGCCTTTTTGGCCCAGTAGGGC
B16: NRC3_random_hg19_250_o1 (dsDNA)
DNA 1: GCCAAGACCATCCTGGCTAACACAGTGAAACCCTGTGCGATTGACAGCGTAGAATGAAGG
DNA 2: CCTTCATTCTACGCTGTCAATCGCACAGGGTTTCACTGTGTTAGCCAGGATGGTCTTGGC
B17: NRC3_random_hg19_290_o1 (dsDNA)
DNA 1: GCGCCTCCATCTCAGGACTTGATTCTATTGAGTTAAGCGATTGACAGCGTAGAATGAAGG
DNA 2: CCTTCATTCTACGCTGTCAATCGCTTAACTCAATAGAATCAAGTCCTGAGATGGAGGCGC
B18: NRC3_wobSeed73_DR3_A6T_o1 (dsDNA)
DNA 1: GCCAATCTAGGTCACAGAGGTCAAAGTCCGTGCGTAGCGATTGACAGCGTAGAATGAAGG
DNA 2: CCTTCATTCTACGCTGTCAATCGCTACGCACGGACTTTGACCTCTGTGACCTAGATTGGC
B19: NRC3_random_hg19_123_o1 (dsDNA)
DNA 1: GCGTGGAGAAAGTTCTGAGACTGAAGATGACTTTCCGCGATTGACAGCGTAGAATGAAGG
DNA 2: CCTTCATTCTACGCTGTCAATCGCGGAAAGTCATCTTCAGTCTCAGAACTTTCTCCACGC
B20: NRC3_random_hg19_169_o1 (dsDNA)
DNA 1: GCCTTCCCTGCTGCTTTGTTTACCTAAGCAAGCCTGGCGATTGACAGCGTAGAATGAAGG
DNA 2: CCTTCATTCTACGCTGTCAATCGCCAGGCTTGCTTAGGTAAACAAAGCAGCAGGGAAGGC

target: RXRa (Homo sapiens, UniProt P19793); assay: no ligand; PBM; 180 nM; PBS pH 7.4, 2% milk, 0.02% Triton X-100, 1 mM DTT, BSA, 0.4 mg/ml salmon testes DNA; conditions: tags: His cleaved; chain copies: 2; label: surface-attached array probe

Row | Binder | binding signal
1 | B1 | 8.8 PBM z-score against 500 random probes
2 | B2 | 8.08 PBM z-score against 500 random probes
3 | B3 | 8.68 PBM z-score against 500 random probes

target: PPARg:RXRa (Homo sapiens, UniProt P37231;P19793 full;full); assay: no ligand; PBM; 180 nM : 90 nM RXRa; PBS pH 7.4, 2% milk, 0.02% Triton X-100, 1 mM DTT, BSA, 0.4 mg/ml salmon testes DNA; conditions: tags: His kept;His cleaved; copies: 1;1; label: surface-attached array probe

Row | Binder | binding signal
4 | B4 | 10 PBM z-score against 500 random probes
5 | B5 | 0.5 PBM z-score against 500 random probes
6 | B6 | -1.25 PBM z-score against 500 random probes
7 | B7 | -0.26 PBM z-score against 500 random probes
8 | B8 | 0.35 PBM z-score against 500 random probes
9 | B9 | 10.2 PBM z-score against 500 random probes
10 | B1 | 10.2 PBM z-score against 500 random probes
11 | B10 | 12.3 PBM z-score against 500 random probes
12 | B11 | 11.8 PBM z-score against 500 random probes
13 | B12 | -0.63 PBM z-score against 500 random probes
14 | B13 | 12.4 PBM z-score against 500 random probes
15 | B14 | -2.08 PBM z-score against 500 random probes
16 | B15 | 0.38 PBM z-score against 500 random probes
17 | B16 | 0.19 PBM z-score against 500 random probes
18 | B17 | -0.43 PBM z-score against 500 random probes
19 | B18 | 10.7 PBM z-score against 500 random probes
20 | B19 | 0.25 PBM z-score against 500 random probes
21 | B2 | 10.1 PBM z-score against 500 random probes
22 | B3 | 9.87 PBM z-score against 500 random probes
23 | B20 | -1.09 PBM z-score against 500 random probes

target: RARb:RXRa (Homo sapiens, UniProt P10826;P19793 full;full); assay: no ligand; PBM; 270 nM : 90 nM RXRa; PBS pH 7.4, 2% milk, 0.02% Triton X-100, 1 mM DTT, BSA, 0.4 mg/ml salmon testes DNA; conditions: tags: His kept;His cleaved; copies: 1;1; label: surface-attached array probe
Outline: (§1)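 Binding buffer was PBS pH 7.4 with 2% milk, 0.02% Triton X-100, 1 mM DTT, 0.2 mg/mL BSA and 0.4 mg/ml salmon testes DNA. In it, ligand-free nuclear receptor dimers were incubated 1 h on custom Agilent 4×180K protein-binding microarrays carrying double-stranded probes. Antibodies against each partner (one per run) detected binding, and z-scores were calculated against random background probes after regression normalization of scanned fluorescence.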

Row | Binder | binding signal
24 | B16 | -0.3 PBM z-score against 500 random probes
25 | B2 | 6.16 PBM z-score against 500 random probes
26 | B3 | 6.38 PBM z-score against 500 random probes
27 | B20 | -0.32 PBM z-score against 500 random probes

target: VDR:RXRa (Homo sapiens, UniProt P11473;P19793 full;full); assay: as above; conditions: tags: His kept;His cleaved; copies: 1;1; label: surface-attached array probe
Outline: as §1

Row | Binder | binding signal
28 | B16 | -0.26 PBM z-score against 500 random probes

target: LXRa:RXRa (Homo sapiens, UniProt Q13133;P19793 full;full); assay: as above; conditions: tags: His kept;His cleaved; copies: 1;1; label: surface-attached array probe
Outline: as §1

Row | Binder | binding signal
29 | B5 | -0.1 PBM z-score against 500 random probes
30 | B7 | -0.72 PBM z-score against 500 random probes
31 | B8 | 0.09 PBM z-score against 500 random probes
32 | B10 | 7.38 PBM z-score against 500 random probes
33 | B11 | 7.33 PBM z-score against 500 random probes
34 | B16 | -0.15 PBM z-score against 500 random probes
35 | B2 | 7.01 PBM z-score against 500 random probes
36 | B3 | 7.37 PBM z-score against 500 random probes
37 | B20 | -0.21 PBM z-score against 500 random probes

target: PPARa:RXRa (Homo sapiens, UniProt Q07869;P19793 full;full); assay: as above; conditions: tags: GST kept;His cleaved; copies: 1;1; label: surface-attached array probe
Outline: as §1

Sequence of PPARa:RXRa (Q07869 whole entry, chain 1 of 2): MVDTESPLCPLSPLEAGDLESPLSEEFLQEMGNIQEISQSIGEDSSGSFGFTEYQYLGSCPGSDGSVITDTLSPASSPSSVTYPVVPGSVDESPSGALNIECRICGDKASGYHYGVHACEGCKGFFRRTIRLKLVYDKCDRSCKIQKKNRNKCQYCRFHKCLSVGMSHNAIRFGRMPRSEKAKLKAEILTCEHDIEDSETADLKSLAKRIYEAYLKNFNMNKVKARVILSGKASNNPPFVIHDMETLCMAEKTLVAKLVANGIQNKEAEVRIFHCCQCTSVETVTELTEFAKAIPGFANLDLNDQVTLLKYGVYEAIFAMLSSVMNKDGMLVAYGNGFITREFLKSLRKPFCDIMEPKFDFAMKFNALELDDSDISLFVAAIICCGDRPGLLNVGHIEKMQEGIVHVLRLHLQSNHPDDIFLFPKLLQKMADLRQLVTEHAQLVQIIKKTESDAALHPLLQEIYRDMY
Sequence of PPARa:RXRa (P19793 whole entry, chain 2 of 2): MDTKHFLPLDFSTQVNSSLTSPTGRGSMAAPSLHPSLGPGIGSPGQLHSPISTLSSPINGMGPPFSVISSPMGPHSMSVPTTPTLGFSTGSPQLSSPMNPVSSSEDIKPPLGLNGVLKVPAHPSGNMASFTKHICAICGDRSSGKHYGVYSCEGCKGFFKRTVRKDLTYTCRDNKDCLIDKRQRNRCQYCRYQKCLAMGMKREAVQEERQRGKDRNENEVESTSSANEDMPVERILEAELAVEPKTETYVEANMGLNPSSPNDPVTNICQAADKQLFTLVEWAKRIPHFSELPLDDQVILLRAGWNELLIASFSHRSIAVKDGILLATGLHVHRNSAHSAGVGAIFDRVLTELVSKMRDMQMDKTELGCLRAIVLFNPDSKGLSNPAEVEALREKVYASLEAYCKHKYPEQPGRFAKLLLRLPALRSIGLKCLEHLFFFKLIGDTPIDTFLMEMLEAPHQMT

Row | Binder | binding signal
38 | B1 | 7.26 PBM z-score against 500 random probes
39 | B17 | -0.45 PBM z-score against 500 random probes
40 | B2 | 7.57 PBM z-score against 500 random probes
41 | B3 | 6.81 PBM z-score against 500 random probes

target: LXRb:RXRa (Homo sapiens, UniProt P55055;P19793 full;full); assay: as above; conditions: tags: His kept;His cleaved; copies: 1;1; label: surface-attached array probe
Outline: as §1

Sequence of LXRb:RXRa (P55055 whole entry, chain 1 of 2): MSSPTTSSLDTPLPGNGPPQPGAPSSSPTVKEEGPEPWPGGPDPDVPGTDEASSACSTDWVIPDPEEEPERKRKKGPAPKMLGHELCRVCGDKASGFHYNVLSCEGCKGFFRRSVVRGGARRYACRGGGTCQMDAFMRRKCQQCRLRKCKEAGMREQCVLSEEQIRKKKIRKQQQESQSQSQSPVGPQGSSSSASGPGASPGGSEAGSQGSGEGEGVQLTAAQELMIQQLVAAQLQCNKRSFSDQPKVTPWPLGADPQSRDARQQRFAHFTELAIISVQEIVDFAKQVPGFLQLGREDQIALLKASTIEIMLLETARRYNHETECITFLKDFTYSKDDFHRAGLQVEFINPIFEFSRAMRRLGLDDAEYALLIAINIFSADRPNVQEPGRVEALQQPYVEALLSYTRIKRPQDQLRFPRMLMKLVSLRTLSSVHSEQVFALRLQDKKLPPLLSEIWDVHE
Sequence of LXRb:RXRa (P19793 whole entry, chain 2 of 2): as the sequence (P19793 whole entry, chain 2 of 2) above

Row | Binder | binding signal
42 | B8 | 0.14 PBM z-score against 500 random probes
43 | B9 | 3.56 PBM z-score against 500 random probes
44 | B1 | 6.54 PBM z-score against 500 random probes
45 | B12 | -0.48 PBM z-score against 500 random probes
46 | B16 | -0.42 PBM z-score against 500 random probes
47 | B19 | 0.02 PBM z-score against 500 random probes
48 | B2 | 6.47 PBM z-score against 500 random probes
49 | B3 | 6.31 PBM z-score against 500 random probes

target: FXR:RXRa (Homo sapiens, UniProt Q96RI1;P19793 full;full); assay: as above; conditions: tags: His kept;His cleaved; copies: 1;1; label: surface-attached array probe
Outline: as §1

Sequence of FXR:RXRa (Q96RI1 whole entry, chain 1 of 2): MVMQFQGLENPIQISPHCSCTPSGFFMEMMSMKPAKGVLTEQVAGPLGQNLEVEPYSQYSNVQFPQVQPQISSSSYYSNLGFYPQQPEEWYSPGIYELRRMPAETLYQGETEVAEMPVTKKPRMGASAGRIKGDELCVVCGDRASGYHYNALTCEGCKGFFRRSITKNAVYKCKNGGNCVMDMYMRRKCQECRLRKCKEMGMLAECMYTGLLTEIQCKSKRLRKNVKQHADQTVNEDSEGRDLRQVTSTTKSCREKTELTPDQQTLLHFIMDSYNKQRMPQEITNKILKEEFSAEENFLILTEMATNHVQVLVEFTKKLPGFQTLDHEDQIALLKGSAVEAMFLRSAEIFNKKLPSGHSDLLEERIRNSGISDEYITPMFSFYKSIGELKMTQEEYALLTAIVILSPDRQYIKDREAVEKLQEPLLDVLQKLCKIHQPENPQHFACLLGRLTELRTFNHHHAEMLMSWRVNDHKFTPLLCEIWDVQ
Sequence of FXR:RXRa (P19793 whole entry, chain 2 of 2): as the sequence (P19793 whole entry, chain 2 of 2) above

Row | Binder | binding signal
50 | B1 | 7.97 PBM z-score against 500 random probes
51 | B10 | 8.85 PBM z-score against 500 random probes
52 | B11 | 8.83 PBM z-score against 500 random probes
53 | B16 | 0 PBM z-score against 500 random probes
54 | B2 | 8.84 PBM z-score against 500 random probes
55 | B3 | 9.06 PBM z-score against 500 random probes

target: PXR:RXRa (Homo sapiens, UniProt O75469;P19793 full;full); assay: as above; conditions: tags: His kept;His cleaved; copies: 1;1; label: surface-attached array probe
Outline: as §1

Sequence of PXR:RXRa (O75469 whole entry, chain 1 of 2): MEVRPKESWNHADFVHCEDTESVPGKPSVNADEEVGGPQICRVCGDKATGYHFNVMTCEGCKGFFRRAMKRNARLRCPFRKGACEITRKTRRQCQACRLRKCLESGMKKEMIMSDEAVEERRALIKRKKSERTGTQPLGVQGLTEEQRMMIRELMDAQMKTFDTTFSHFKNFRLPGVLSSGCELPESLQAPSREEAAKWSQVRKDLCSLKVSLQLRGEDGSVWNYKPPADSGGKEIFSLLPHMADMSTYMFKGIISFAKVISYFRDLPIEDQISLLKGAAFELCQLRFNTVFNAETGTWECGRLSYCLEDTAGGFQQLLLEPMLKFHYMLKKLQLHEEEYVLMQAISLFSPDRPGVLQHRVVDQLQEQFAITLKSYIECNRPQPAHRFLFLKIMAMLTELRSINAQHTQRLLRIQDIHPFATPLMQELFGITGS
Sequence of PXR:RXRa (P19793 whole entry, chain 2 of 2): as the sequence (P19793 whole entry, chain 2 of 2) above

Row | Binder | binding signal
56 | B4 | 3.64 PBM z-score against 500 random probes
57 | B6 | -0.63 PBM z-score against 500 random probes
58 | B13 | 6.49 PBM z-score against 500 random probes
59 | B14 | -0.33 PBM z-score against 500 random probes
60 | B15 | -0.08 PBM z-score against 500 random probes
61 | B17 | -0.26 PBM z-score against 500 random probes
62 | B18 | 7.27 PBM z-score against 500 random probes

target: RARg:RXRa (Homo sapiens, UniProt P13631;P19793 full;full); assay: as above; conditions: tags: His kept;His cleaved; copies: 1;1; label: surface-attached array probe
Outline: as §1

Sequence of RARg:RXRa (P13631 whole entry, chain 1 of 2): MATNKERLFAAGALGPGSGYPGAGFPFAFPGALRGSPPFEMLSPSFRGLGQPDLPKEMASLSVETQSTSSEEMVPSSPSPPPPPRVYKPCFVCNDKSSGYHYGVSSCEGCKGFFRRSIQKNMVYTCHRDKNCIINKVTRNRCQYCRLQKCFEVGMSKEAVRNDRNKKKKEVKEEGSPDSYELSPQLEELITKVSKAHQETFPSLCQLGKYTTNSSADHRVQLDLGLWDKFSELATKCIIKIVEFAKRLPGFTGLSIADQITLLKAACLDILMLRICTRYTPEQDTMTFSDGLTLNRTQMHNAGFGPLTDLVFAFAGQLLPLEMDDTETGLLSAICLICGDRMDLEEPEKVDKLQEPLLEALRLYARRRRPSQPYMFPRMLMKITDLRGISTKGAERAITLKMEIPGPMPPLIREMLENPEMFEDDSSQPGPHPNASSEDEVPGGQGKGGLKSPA
Sequence of RARg:RXRa (P19793 whole entry, chain 2 of 2): as the sequence (P19793 whole entry, chain 2 of 2) above

Row | Binder | binding signal
63 | B17 | -0.59 PBM z-score against 500 random probes
64 | B2 | 7.62 PBM z-score against 500 random probes
65 | B3 | 8.25 PBM z-score against 500 random probes
